# Measured values published in patent US20040170614A1.
# Tests used:
# Test in all cases: cell-based or functional assay
# [1] = target: mouse CD40 (mCD40) (mouse) (UniProt P27512)
# hmCD40ΔT6 (human; mouse) = hmCD40ΔT6 (human; mouse) (UniProt P25942)
# [2] = target: human-mouse hybrid CD40 (hmCD40) (human; mouse) (UniProt P25942)
# Chain of UniProt P27512 (P27512 20-289): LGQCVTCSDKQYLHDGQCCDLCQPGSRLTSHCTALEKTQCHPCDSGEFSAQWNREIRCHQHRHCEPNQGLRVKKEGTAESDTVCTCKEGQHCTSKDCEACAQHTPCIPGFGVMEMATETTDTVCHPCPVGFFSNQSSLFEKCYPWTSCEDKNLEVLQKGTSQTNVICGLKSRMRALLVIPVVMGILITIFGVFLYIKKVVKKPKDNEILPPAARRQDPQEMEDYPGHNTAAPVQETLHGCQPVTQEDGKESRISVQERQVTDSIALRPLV
"IgM secretion (Pfc), CH12.LX+hmCD40 cells [1] [Pfc]","IgM secretion (Pfc), CH12.LX+hmCD40ΔT6 cells [1] [Pfc]","IgM secretion (Pfc), CH12.T2-/-+hmCD40 cells [1] [Pfc]","IgM secretion (Pfc), CH12.T2-/-+hmCD40ΔT6 cells [1] [Pfc]","IgM secretion (Pfc), CH12.LX+hmCD40ΔT6 cells (hmCD40ΔT6 (human; mouse)) [Pfc]","IgM secretion (Pfc), CH12.T2-/-+hmCD40ΔT6 cells (hmCD40ΔT6 (human; mouse)) [Pfc]","IgM secretion (Pfc), CH12.LX+hmCD40 cells [2] [Pfc]","IgM secretion (Pfc), CH12.T2-/-+hmCD40 cells [2] [Pfc]",Substance
431000,378000,399000,340000,–,–,–,–,anti-mCD40 mAb 1C10 (antibody)
–,–,–,–,187000,34000,430000,376000,anti-hCD40 mAb G28-5 (antibody)
